Among the data in patent US20160290999A1 (SYSMEX, published 2016) are Kd values, retold here.

No end group written: not given here.

Assay [1] has as its target T1, Human serum albumin (human, UniProt P02768 25-609).
T1 construct: Purchased protein used in solution; In the hydrothermal experiments it is heat-aggregated into an insoluble precipitate; also called HSA
In words: fluorescence titration of TMR-labelled peptide against HSA, Hill fit (as in Example 1). The method, then: (§1) Each of the resulting mixtures was subjected to measurement with a spectrophotofluorometer [product name: F-7000, manufactured by Hitachi High-Technologies Corporation] and the fluorescence intensity with an excitation wavelength of 540 nm and a fluorescence wavelength of 580 nm (hereinafter, referred to as “fluorescence intensity A”) was measured.

In assay [2] the target is T1, Human serum albumin. In words: fluorescence titration of TMR-labelled peptide against HSA, Hill fit (Example 2, FIG. 6). The method, then: as §1
Assay [3] deals with T1, Human serum albumin. In words: Kd as classified from the fluorescence titration; told in Example 4 of the peptides of samples F and G.

B1: TMR-labeled ACTH (1-39) (peptide)
peptide: SYSMEHFRWGKPVGKKRRPVKVYPNAGENESAEAFPLEF
modifications: also: TMR label, site not given here
notes: The free text was followed; also called Adrenocorticotropic hormone (ACTH) (1-39)
Turning to B1, the equilibrium dissociation constant (Kd) – broadly, the free concentration of one partner at which half of the binding sites on the other are occupied at equilibrium, for simple one-to-one binding – with Human serum albumin [1] was 520 µM.

B2: TMR-labeled SA21 (peptide)
peptide: DDEWLCGWRPLCIDEILR
modifications: cysteine pairing not given here; also: TMR label, site not given here
notes: The free text was followed; also called TMR-SA21; TMR-labeled SA1
In the assay with Human serum albumin [2], B2 returned a dissociation constant Kd of less than 500 µM.

In turn, LVAASQAALGL (also: TMR label, site not given here) [TMR-labeled HSA 599-609 fragment] displayed a dissociation constant Kd with Human serum albumin [3] of no less than 500 µM.
